Data published in patent US7947468B2, “Methods” (Medical Research Council, priority 2007, dated 2011).
Changes are numbered by the printed parent chain. Numbers in names are those of the source.

B1: GST-LRRK2[1326-2527] (Homo sapiens) (protein)
chain: LKKAVPYNRMKLMIVGNTGSGKTTLLQQLMKTKKSDLGMQSATVGIDVKDWPIQIRDKRKRDLVLNVWDFAGREEFYSTHPHFMTQRALYLAVYDLSKGQAEVDAMKPWLFNIKARASSSPVILVGTHLDVSDEKQRKACMSKITKELLNKRGFPAIRDYHFVNATEESDALAKLRKTIINESLNFKIRDQLVVGQLIPDCYVELEKIILSERKNVPIEFPVIDRKRLLQLVRENQLQLDENELPHAVHFLNESGVLLHFQDPALQLSDLYFVEPKWLCKIMAQILTVKVEGCPKHPKGIISRRDVEKFLSKKRKFPKNYMSQYFKLLEKFQIALPIGEEYLLVPSSLSDHRPVIELPHCENSEIIIRLYEMPYFPMGFWSRLINRLLEISPYMLSGRERALRPNRMYWRQGIYLNWSPEAYCLVGSEVLDNHPESFLKITVPSCRKGCILLGQVVDHIDSLMEEWFPGLLEIDICGEGETLLKKWALYSFNDGEEHQKILLDDLMKKAEEGDLLVNPDQPRLTIPISQIAPDLILADLPRNIMLNNDELEFEQAPEFLLGDGSFGSVYRAAYEGEEVAVKIFNKHTSLRLLRQELVVLCHLHHPSLISLLAAGIRPRMLVMELASKGSLDRLLQQDKASLTRTLQHRIALHVADGLRYLHSAMIIYRDLKPHNVLLFTLYPNAAIIAKIADYGIAQYCCRMGIKTSEGTPGFRAPEVARGNVIYNQQADVYSFGLLLYDILTTGGRIVEGLKFPNEFDELEIQGKLPDPVKEYGCAPWPMVEKLIKQCLKENPQERPTSAQVFDILNSAELVCLTRRILLPKNVIVECMVATHHNSRNASIWLGCGHTDRGQLSFLDLNTEGYTSEEVADSRILCLALVHLPVEKESWIVSGTQSGTLLVINTEDGKKRHTLEKMTDSVTCLYCNSFSKQSKQKNFLLVGTADGKLAIFEDKTVKLKGAAPLKILNIGNVSTPLMCLSESTNSTERNVMWGGCGTKIFSFSNDFTIQKLIETRTSQLFSYAAFSDSNIITVVVDTALYIAKQNSPVVEVWDKKTEKLCGLIDCVHFLREVMVKENKESKHKMSYSGRVKTLCLQKNTALWIGTGGGHILLLDLSTRRLIRVIYNFCNSVRVMMTAQLGSLKNVMLVLGYNRKNTEGTQKQKEIQSCLTVWDINLPHEVQNLEKHIEVRKELAEKMRRTSVE
notes: phosphorylated by both non-mutated GST-LRRK2[1326-2527] and GST-LRRK2[1326-2527, G2019S]; made in house; host or cells: HEK 293 cells, pEBG-2T vector
B2: GST-LRRK2[1326-2527, G2019S] (Homo sapiens; G2019S) (protein)
chain: B1 chain with G694S
notes: made in house; host or cells: HEK 293 cells, pEBG-2T vector

How the values were obtained:
[1] = substrate: CC[C@H](C)[C@H](NC(=O)[C@H](CCC(N)=O)NC(=O)[C@H](CCCNC(=N)N)NC(=O)[C@H](CC(C)C)NC(=O)[C@@H](NC(=O)[C@H](CCCCN)NC(=O)[C@H](Cc1ccc(O)cc1)NC(=O)[C@H](CCCCN)NC(=O)[C@H](CC(=O)O)NC(=O)[C@H](CCCNC(=N)N)NC(=O)CNC(=O)[C@H](CC(C)C)NC(=O)[C@@H](N)CCCNC(=N)N)[C@@H](C)O)C(=O)N[C@@H](CCCNC(=N)N)C(=O)N[C@@H](CCC(N)=O)C(=O)O; test: Assay of LRRK2 using LRRKtide as substrate (non-mutated enzyme); type: biochemical, human; conditions: other: non-mutated GST-LRRK2[1326-2527], varying LRRKtide, 0.1 mM ATP, 30 min 30° C.
Method: (§1) Assay of LRRK2 using LRRKtide as substrate. Assays were set up in a total volume of 50 μl of Buffer A containing 0.5-0.7 μg of either wild type or mutant forms LRRK2, 10 mM MgCl2 and 0.1 mM [γ^32P]-ATP (300 cpm/pmol) in the presence of 300 μM or the indicated concentration of LRRKtide (RLGRDKYKTLRQIRQ; SEQ ID NO:1) peptide substrate. After incubation for 30 min at 30° C., reactions were terminated by applying 40 μl of the reaction mixture onto P81 phosphocellulose paper and phosphorylation of LRRKtide was quantified following washing the P81 phosphocellulose in 50 mM phosphoric acid and Cherenkov counting. One Unit (U) of LRRK2 activity was defined as the amount of enzyme that catalysed the incorporation of 1 nmol of ^32P into LRRKtide. Km and Vmax parameters were determined by performing the assay described above using varying concentration of LRRKtide. The Km and Vmax parameters were calculated using the Graph-Pad prism programme.

[2] = substrate: CC[C@H](C)[C@H](NC(=O)[C@H](CCC(N)=O)NC(=O)[C@H](CCCNC(=N)N)NC(=O)[C@H](CC(C)C)NC(=O)[C@@H](NC(=O)[C@H](CCCCN)NC(=O)[C@H](Cc1ccc(O)cc1)NC(=O)[C@H](CCCCN)NC(=O)[C@H](CC(=O)O)NC(=O)[C@H](CCCNC(=N)N)NC(=O)CNC(=O)[C@H](CC(C)C)NC(=O)[C@@H](N)CCCNC(=N)N)[C@@H](C)O)C(=O)N[C@@H](CCCNC(=N)N)C(=O)N[C@@H](CCC(N)=O)C(=O)O; test: Assay of LRRK2 using LRRKtide as substrate (G2019S mutant); type: biochemical, human; conditions: other: GST-LRRK2[1326-2527, G2019S], varying LRRKtide, 0.1 mM ATP, 30 min 30° C.
Method: as §1

Protein	Km [1]	Km [2]	Vmax [2]
B1	200 µM		
B2		200 µM	10 U/mg
